Test system: p1
Test: p1 copy number by p1-encoded mKate2 fluorescence
Assay type: cell-based, S. cerevisiae
Details: OR-Y24, measured in triplicate
Summary of the method: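 p1 copy number came from mKate2 fluorescence of saturated OR-Y24 cultures (triplicates, regrown from 1:10,000), read by flow cytometry and converted through a linear curve calibrated by qPCR (LEU2 against genomic LEU3). For small-scale tests, OD600-normalized plate-reader fluorescence (588/633 nm) was scaled to a w.t. TP-DNAP1 control.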

Row | Molecule | Mean fold-increase over w.t. (p1 copy number) [fold]
1 | R692V: TP-DNAP1 variant (protein) MDYKDKALNDLRNVYADFDSLPLDFRQILIKDRATLLQKEDVEKKILERQEDAKKYAEYLKQSEIPERISLPNIKRHKGVSISFEETSEDMVLEPRPFIFDGLNIRCFRRETIFSLKNKILNMVKESSSFKNVSRQSVSFMYFKIFNKGKVIASTKSVNIYEDKIDERLEDLCNNFDDVLKKIIDVTYGYESLFVSETYSYVIFYAKSIYFPQPRCVNNWGNNIPNILTFDSFKLFTANKNNVSCIKQCSRFLWQKDFNTLEEMIEYKNGNICIVTPQLHINDVRDIKSFNDIRLYSESPIKTFSVIDNTITYLFYFKEHLGVIFNITKSRHDRRVTKFSPLSKFSDVKNITVCFDIESYFDPEKESNQVNIPFICCASIIYNKVIGNIVDFEGRDCVAQMIEYVVDICGELNISSVELIAHNGGGYDFHYILSSMYNPAAIKNILIRNNSFISFNFAHDGVKFSVKDSYSFLLCSLANASKAFLNEETFKKTDFPHHDLKTADDLYKVYKEWSSVNTEINHVVEKEKLLITSEHIVNFTKNDKSKTLIEWSKDYCRNDVLVLSKVWLEFKNAVEDIFNCELVDQTMTLAGLSYKLFQANMPFDVELRHPNKEDYFNMREALIGGRCISVNGIYKDVLCLDVKSLYPASMAFYDQPYGSFKRVSSRPKDELGIYYVRVTPNRNNKSNFFPIVSHNKITYNNFEESTYIAWYTNVDIDIGLSEGHNIEYIPFDSYGNIGYSWSKKGKIFEKYIKDVLYKLKIKYEKQNNKVKRNVIKIIMNSLWGKFAQKWVNFEYFIKSEDDIDFESEEAYKIWDTDFMLIKKIKESTYSSKPIQNGVFTLSWARYHMKSIWDAGAKEGAECIYSDTDSIFVHKEHFKKNAKFMLNGLKVPIIGSEVGQLELECEFDKLLCAGKKQYMGFYTYFQDGKPCIKEKKRFKGIPSNYIIPELYAHLLSGADKEAKIQFLKFRREWGSVKGYIENKTVKAT | 2.29
2 | S693R: TP-DNAP1 variant (protein) MDYKDKALNDLRNVYADFDSLPLDFRQILIKDRATLLQKEDVEKKILERQEDAKKYAEYLKQSEIPERISLPNIKRHKGVSISFEETSEDMVLEPRPFIFDGLNIRCFRRETIFSLKNKILNMVKESSSFKNVSRQSVSFMYFKIFNKGKVIASTKSVNIYEDKIDERLEDLCNNFDDVLKKIIDVTYGYESLFVSETYSYVIFYAKSIYFPQPRCVNNWGNNIPNILTFDSFKLFTANKNNVSCIKQCSRFLWQKDFNTLEEMIEYKNGNICIVTPQLHINDVRDIKSFNDIRLYSESPIKTFSVIDNTITYLFYFKEHLGVIFNITKSRHDRRVTKFSPLSKFSDVKNITVCFDIESYFDPEKESNQVNIPFICCASIIYNKVIGNIVDFEGRDCVAQMIEYVVDICGELNISSVELIAHNGGGYDFHYILSSMYNPAAIKNILIRNNSFISFNFAHDGVKFSVKDSYSFLLCSLANASKAFLNEETFKKTDFPHHDLKTADDLYKVYKEWSSVNTEINHVVEKEKLLITSEHIVNFTKNDKSKTLIEWSKDYCRNDVLVLSKVWLEFKNAVEDIFNCELVDQTMTLAGLSYKLFQANMPFDVELRHPNKEDYFNMREALIGGRCISVNGIYKDVLCLDVKSLYPASMAFYDQPYGSFKRVSSRPKDELGIYYVRVTPNRNNKSNFFPIRRHNKITYNNFEESTYIAWYTNVDIDIGLSEGHNIEYIPFDSYGNIGYSWSKKGKIFEKYIKDVLYKLKIKYEKQNNKVKRNVIKIIMNSLWGKFAQKWVNFEYFIKSEDDIDFESEEAYKIWDTDFMLIKKIKESTYSSKPIQNGVFTLSWARYHMKSIWDAGAKEGAECIYSDTDSIFVHKEHFKKNAKFMLNGLKVPIIGSEVGQLELECEFDKLLCAGKKQYMGFYTYFQDGKPCIKEKKRFKGIPSNYIIPELYAHLLSGADKEAKIQFLKFRREWGSVKGYIENKTVKAT | 2.09
3 | H694I: TP-DNAP1 variant (protein) MDYKDKALNDLRNVYADFDSLPLDFRQILIKDRATLLQKEDVEKKILERQEDAKKYAEYLKQSEIPERISLPNIKRHKGVSISFEETSEDMVLEPRPFIFDGLNIRCFRRETIFSLKNKILNMVKESSSFKNVSRQSVSFMYFKIFNKGKVIASTKSVNIYEDKIDERLEDLCNNFDDVLKKIIDVTYGYESLFVSETYSYVIFYAKSIYFPQPRCVNNWGNNIPNILTFDSFKLFTANKNNVSCIKQCSRFLWQKDFNTLEEMIEYKNGNICIVTPQLHINDVRDIKSFNDIRLYSESPIKTFSVIDNTITYLFYFKEHLGVIFNITKSRHDRRVTKFSPLSKFSDVKNITVCFDIESYFDPEKESNQVNIPFICCASIIYNKVIGNIVDFEGRDCVAQMIEYVVDICGELNISSVELIAHNGGGYDFHYILSSMYNPAAIKNILIRNNSFISFNFAHDGVKFSVKDSYSFLLCSLANASKAFLNEETFKKTDFPHHDLKTADDLYKVYKEWSSVNTEINHVVEKEKLLITSEHIVNFTKNDKSKTLIEWSKDYCRNDVLVLSKVWLEFKNAVEDIFNCELVDQTMTLAGLSYKLFQANMPFDVELRHPNKEDYFNMREALIGGRCISVNGIYKDVLCLDVKSLYPASMAFYDQPYGSFKRVSSRPKDELGIYYVRVTPNRNNKSNFFPIRSINKITYNNFEESTYIAWYTNVDIDIGLSEGHNIEYIPFDSYGNIGYSWSKKGKIFEKYIKDVLYKLKIKYEKQNNKVKRNVIKIIMNSLWGKFAQKWVNFEYFIKSEDDIDFESEEAYKIWDTDFMLIKKIKESTYSSKPIQNGVFTLSWARYHMKSIWDAGAKEGAECIYSDTDSIFVHKEHFKKNAKFMLNGLKVPIIGSEVGQLELECEFDKLLCAGKKQYMGFYTYFQDGKPCIKEKKRFKGIPSNYIIPELYAHLLSGADKEAKIQFLKFRREWGSVKGYIENKTVKAT | 1.78
4 | S693Q: TP-DNAP1 variant (protein) MDYKDKALNDLRNVYADFDSLPLDFRQILIKDRATLLQKEDVEKKILERQEDAKKYAEYLKQSEIPERISLPNIKRHKGVSISFEETSEDMVLEPRPFIFDGLNIRCFRRETIFSLKNKILNMVKESSSFKNVSRQSVSFMYFKIFNKGKVIASTKSVNIYEDKIDERLEDLCNNFDDVLKKIIDVTYGYESLFVSETYSYVIFYAKSIYFPQPRCVNNWGNNIPNILTFDSFKLFTANKNNVSCIKQCSRFLWQKDFNTLEEMIEYKNGNICIVTPQLHINDVRDIKSFNDIRLYSESPIKTFSVIDNTITYLFYFKEHLGVIFNITKSRHDRRVTKFSPLSKFSDVKNITVCFDIESYFDPEKESNQVNIPFICCASIIYNKVIGNIVDFEGRDCVAQMIEYVVDICGELNISSVELIAHNGGGYDFHYILSSMYNPAAIKNILIRNNSFISFNFAHDGVKFSVKDSYSFLLCSLANASKAFLNEETFKKTDFPHHDLKTADDLYKVYKEWSSVNTEINHVVEKEKLLITSEHIVNFTKNDKSKTLIEWSKDYCRNDVLVLSKVWLEFKNAVEDIFNCELVDQTMTLAGLSYKLFQANMPFDVELRHPNKEDYFNMREALIGGRCISVNGIYKDVLCLDVKSLYPASMAFYDQPYGSFKRVSSRPKDELGIYYVRVTPNRNNKSNFFPIRQHNKITYNNFEESTYIAWYTNVDIDIGLSEGHNIEYIPFDSYGNIGYSWSKKGKIFEKYIKDVLYKLKIKYEKQNNKVKRNVIKIIMNSLWGKFAQKWVNFEYFIKSEDDIDFESEEAYKIWDTDFMLIKKIKESTYSSKPIQNGVFTLSWARYHMKSIWDAGAKEGAECIYSDTDSIFVHKEHFKKNAKFMLNGLKVPIIGSEVGQLELECEFDKLLCAGKKQYMGFYTYFQDGKPCIKEKKRFKGIPSNYIIPELYAHLLSGADKEAKIQFLKFRREWGSVKGYIENKTVKAT | 2.22
